{"source": "patent US5344846A", "about": "“Compositions and methods for inhibiting deoxyhypusine synthase and the growth of cells” (The United States of America as represented by the …, priority 1992, dated 1994)", "substrate": "NCCCCNCCCN", "assay": "Inhibition of deoxyhypusine synthase ([3H]deoxyhypusine formation from [3H]spermidine), IC50/Ki", "format": "biochemical, rat", "details": "pH 9.3; 37.0 °C", "description": "A typical assay mixture included 0.2M glycine, 1 mM dithiothreitol, 0.5 mM NAD^+, 2.4 micromolar (μM) [1,8-^3 H] spermidine, 1 μM ec-eIF-5A(Lys), 25 micrograms (μg) bovine serum albumin, and 3-15 units of enzyme in a total volume of 20 microliters (μl). Incubations were carried out at pH 9.3 and 37° C. for 1 hour. […] Percent inhibition was plotted versus log inhibitor concentration in order to obtain graphic estimates of IC50 values, i.e., the concentrations inhibiting [^3 H]deoxyhypusine production by 50%. The IC50 values reported in the tables were calculated by fitting the data points to equation 1 where x=% inhibition and I is the inhibitor concentration. […] The nature of the inhibition was determined by plotting reciprocal velocities of [^3 H]deoxyhypusine production against reciprocals of [^3 H]spermidine concentrations at a constant fixed level of ec-eIF-5A(Lys) (1 μM) and at set inhibitor concentrations. […] Estimates of Ki values were made by fitting the data to equation 2; wherein v is the velocity of the reaction, V is the maximum velocity, S is the substrate concentration, Km is Michaeli's constant, Ki is the inhibition constant, and I is the inhibitor concentration."}
{"protein": "deoxyhypusine synthase from rat testis (Rattus norvegicus) (protein, as catalyzed by deoxyhypusine synthase from rat testis; from tissue; host or cells: rat testis) MEGTPSGAAPSSALAAVLKHSSALPPESAQVQGYDFNRGVDYHALLEAYGTTGFQATNFGRAVQQVNAMIEKKLEPLAVDEDHHEDLTQSRRPLTGCTIFLGYTSNLISSGIRETIRYLVQHNMVDVLVTTAGGVEEDLIKCLAPTYLGEFSLRGKELRENGINRIGNLLVPNDNYCKFEDWLMPILDQMVQEQNTEGVKWTPSKMISRLGKEINNPESVYYWAHKNHIPVLSPALTDGSLGDMIFFHSYKNPGLVLDIVEDLRLINMQAIFAKRTGMIILGGGVVKHHIANANLMRNGADYAVYINTAQEFDGSDSGARPDEAVSWGKIRMDAQPVKVYADASLVFPLLVAETFAQKADAFRAEKNED", "values": [{"measurement": "Km", "value": "4.5 ± 0.7", "unit": "µM"}]}
